Like-named read-outs stand apart in the source and are kept apart here.

Assay [1] deals with T1, sCoV2-RBD (Fc-tagged RBD of SARS-CoV-2 S protein) (SARS-CoV-2; human, UniProt P0DTC2 319-541). Nature of the assay: BLI (Octet) blocking of ACE2 binding to captured sCoV2-RBD.
Assay [2] has as its target T2, SARS-CoV-2 RBD protein (Sino Biological, Cat: 40592-V08B) (SARS-CoV-2, UniProt P0DTC2 319-541). Nature of the assay: BLI (Octet), mAb on Protein A sensor.
For assay [3], the target named is T1, sCoV2-RBD (Fc-tagged RBD of SARS-CoV-2 …). Nature of the assay: ELISA titration on coated sCoV2-RBD.
Assay [4] has the same target. Nature of the assay: ELISA titration on coated sCoV2-RBD. The source holds these as a separate data set.
Assay [5] deals with T3, sCoV-RBD (Fc-tagged RBD of SARS-CoV S protein) (SARS-CoV; human, UniProt P59594 306-527). Nature of the assay: phage ELISA, scFv on phage. A general note: In an ELISA, binding on a coated surface is turned into a signal by an enzyme label.
Assay [6] addresses T2, SARS-CoV-2 RBD protein (Sino …).
In assay [7] the target is T4, S protein of SARS-CoV (SARS-CoV, UniProt P59594 14-1195). Nature of the assay: ELISA, purified IgG1 on coated S protein.
The target of assay [8] is T1, sCoV2-RBD (Fc-tagged RBD of SARS-CoV-2 …).
Assay [9] has as its target SARS-CoV-2 S protein on live SARS-CoV-2-mNG reporter virus (SARS-CoV-2, UniProt P0DTC2 14-1273). Nature of the assay: cell-based or functional assay.
The target in assay [10] is T2, SARS-CoV-2 RBD protein (Sino …). The source holds these as a separate data set.
Assay [11] addresses T3, sCoV-RBD (Fc-tagged RBD of SARS-CoV S …). Nature of the assay: BLI (Octet) blocking of ACE2 binding to sCoV-RBD. On the technique in general: BLI is a label-free optical method that tracks binding on a fibre tip over time.
The target in assay [12] is T5, S protein of MERS-CoV (MERS-CoV, UniProt K9N5Q8 18-1296).
T5 sequence: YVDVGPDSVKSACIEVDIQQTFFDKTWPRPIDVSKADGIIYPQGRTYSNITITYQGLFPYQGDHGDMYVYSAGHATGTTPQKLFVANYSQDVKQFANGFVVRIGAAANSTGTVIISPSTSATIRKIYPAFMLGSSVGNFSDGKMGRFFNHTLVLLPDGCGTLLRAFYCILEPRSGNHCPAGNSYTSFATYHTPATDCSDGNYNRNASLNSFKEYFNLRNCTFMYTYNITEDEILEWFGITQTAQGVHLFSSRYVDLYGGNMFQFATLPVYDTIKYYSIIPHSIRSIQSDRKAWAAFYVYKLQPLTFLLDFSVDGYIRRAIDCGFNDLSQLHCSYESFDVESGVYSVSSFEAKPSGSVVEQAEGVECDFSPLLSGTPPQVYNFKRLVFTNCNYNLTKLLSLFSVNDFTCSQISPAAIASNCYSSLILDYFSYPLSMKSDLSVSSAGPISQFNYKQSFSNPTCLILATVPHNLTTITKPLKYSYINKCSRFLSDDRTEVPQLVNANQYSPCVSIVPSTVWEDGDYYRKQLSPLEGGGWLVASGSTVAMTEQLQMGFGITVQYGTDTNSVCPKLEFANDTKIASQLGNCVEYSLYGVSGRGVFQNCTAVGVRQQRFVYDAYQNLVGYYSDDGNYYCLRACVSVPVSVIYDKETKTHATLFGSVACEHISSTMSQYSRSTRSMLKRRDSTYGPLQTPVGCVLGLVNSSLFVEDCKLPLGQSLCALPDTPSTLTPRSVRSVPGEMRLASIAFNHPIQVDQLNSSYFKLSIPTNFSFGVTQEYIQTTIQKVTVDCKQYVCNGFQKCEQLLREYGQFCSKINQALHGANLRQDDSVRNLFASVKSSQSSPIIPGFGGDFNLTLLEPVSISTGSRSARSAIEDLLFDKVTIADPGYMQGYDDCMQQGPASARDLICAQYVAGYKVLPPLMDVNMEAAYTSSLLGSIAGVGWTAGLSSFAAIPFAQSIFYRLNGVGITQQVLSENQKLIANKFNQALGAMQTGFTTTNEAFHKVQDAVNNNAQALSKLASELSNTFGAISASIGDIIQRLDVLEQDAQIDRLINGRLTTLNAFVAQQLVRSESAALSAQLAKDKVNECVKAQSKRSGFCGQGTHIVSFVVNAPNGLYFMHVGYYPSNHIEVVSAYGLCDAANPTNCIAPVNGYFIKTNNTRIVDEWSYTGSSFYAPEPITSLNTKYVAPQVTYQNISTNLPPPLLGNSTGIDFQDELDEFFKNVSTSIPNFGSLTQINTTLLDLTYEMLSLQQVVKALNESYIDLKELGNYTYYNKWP
Nature of the assay: BLI kinetic binding (FIG. 28D).

Assay [13] addresses trimeric prefusion S protein of SARS-CoV-2 (SARS-CoV-2, UniProt P0DTC2 14-1208).
For assay [14], the target named is T1, sCoV2-RBD (Fc-tagged RBD of SARS-CoV-2 …). This is another data set of the same source.
The target of assay [15] is T4, S protein of SARS-CoV.
Assay [16] addresses T3, sCoV-RBD (Fc-tagged RBD of SARS-CoV S …).
For assay [17], the target named is T4, S protein of SARS-CoV. Nature of the assay: BLI (Octet), CoV2-20 against spike of SARS-CoV.
Assay [18] has as its target T3, sCoV-RBD (Fc-tagged RBD of SARS-CoV S …). Nature of the assay: ELISA titration on coated sCoV-RBD.
The target of assay [19] is T1, sCoV2-RBD (Fc-tagged RBD of SARS-CoV-2 …). Nature of the assay: ELISA titration on coated sCoV2-RBD. The source holds these as a separate data set.

B1: CoV2-11 (antibody, V domains shown)
VH: QVELVESGGGLVQPGRSLRLSCEASGFSFDNYAMHWVRQTPGKGLEWVSGITGNSGTIGYADSVKGRFTISRDNAKNSLYLQMNRLRAEDTALYYCAKDTDYDSSGSYFDYWGQGTLVTVSS
VL: QPVLTQPPSVAVAPGQTARITCGGKNIGRESVHWYQQKPDQAPVLVIYSDGDRPSGTSERFSGSRSGNAATLTISRVEAGDEADYFCQVWDPDTDHYVFGTGTELTVL
What is called IC50 is the concentration that gives 50% inhibition. The term Kd denotes the concentration at which binding is half-saturated. Low values mean higher affinity, high ones lower affinity. As usually defined, the koff is a measure of how fast the partners let go of each other. Lower therefore signals slow dissociation. What is called kon is a measure of how fast the partners come together. A lower kon goes with slow association. The EC50 is the midpoint of the concentration-response curve. Read a low EC50 as higher potency in that assay. In assay [1], B1 came in with a half-inhibitory concentration (IC50) of 2.97 µg/mL. In assay [2], binding was characterised by a dissociation constant (Kd) of 4.97 nM, the koff worked out at 0.000306 s⁻¹ and the kon was 61600 M⁻¹ s⁻¹. The molecule also gave a concentration giving a half-maximal response (EC50) in [3] of 0.59 nM. In [4], this molecule came in with an EC50 of 0.6 nM.

B2: CoV2-01 (antibody, V domains shown)
VH: QVLLVQSGAEMKKPGASVKVSCKTSGYTFTNSYIHWVRQAPGQGLEWMGWINPISGGTNYAQKFQGRVTMTRDTSINTAYMELSRLRSDDTAVYYCARDRGDYDYGWGTSPFYFDYWGQGTLVTVSS
VL: DVQMTQSPSSLSASVGDRVTITCRASQSISRYLNWYQQKPGKAPKLLIYAASSLQSGVPSRFSGSGSGADFTLTISSLQPEDFATYYCQQSFSPPITFGQGTRLEIK
As to B2, the binding result in [5] was “no binding”; in [7], “no binding (tested: one concentration, not printed)”. The Kd in assay [6] and in assay [2] was 10.8 nM in each case. In [1], this molecule yielded a half-maximal inhibitory concentration (IC50) of 9.17 µg/mL. This molecule also yielded an off-rate constant (koff) in assay [2] of 0.000574 s⁻¹. In assay [2], this molecule had a kon of 53300 M⁻¹ s⁻¹. The EC50 in assay [4] and in [8] was 0.83 nM in each case. Besides, the “NC50 (neutralisation of reporter SARS-CoV-2, Vero E6 cells)” value (shortened to “NC50”) in assay [9] turned out to be 5.2 µg/mL.

B3: CoV2-17 (antibody, V domains shown)
VH: QVELVESGGGLVKPGGSLRLSCAASGFTFSSYSMNWVRQAPGKGLEWVSSISSSSSYIYYADSVKGRFTISRDNAKNSLYLQMNSLRAEDTAVYYCARGNVDIVATGEVDAFDIWGQGTMVSVSS
VL: QAVVTQPPSASGTLGQRVTISCSGSSSTIGSNYVYWYQQLPGTAPKLLIYRNNQRPSGVPDRFSGSKSGTSASLAISGLRSEDEADYYCAAWDDSLSGYVFGTGTQLTVL
For the molecule B3, the binding result in [5] is “no binding”; in assay [7], “no binding (tested: one concentration, not printed)”. Further, the dissociation constant (Kd) is 1.73 nM in assay [6], 53.4 nM in assay [2] and 1.73 nM in assay [10]. Also, the IC50 in assay [1] was 4.28 µg/mL. In addition, the koff in assay [2] worked out at 0.00101 s⁻¹; in assay [10], 5.78e-05 s⁻¹. Moreover, the kon in [2] turned out to be 18900 M⁻¹ s⁻¹; in assay [10], 33300 M⁻¹ s⁻¹. Besides, the figures for the EC50 in assay [4] and in assay [8] were 2.24 nM and 2.31 nM, respectively. In addition, in [9], the “NC50” value was 2.49 µg/mL.

B4: CoV2-12 (antibody, V domains shown)
VH: QVQLVESGGGVVQPGRSLRLSCVASGFTFSSYAMQWVRQAPGKGLEYVAVVSDDGNMKFYADSVKGRFTISRDNSRNTVSLQMNSLGVEDTAVYYCARENYFWSGSIGGLDYWGQGTLVSVSS
VL: not shown
Take B4: the figures for the IC50 in assay [11] and in assay [1] were 1.71 µg/mL and 2.13 µg/mL, respectively. Further, in [12], the binding result is given as “no binding”. The concentration giving a half-maximal response (EC50) in assay [4] was determined as 2.11 nM; in assay [14], 0.89 nM; in [16], 3.51 nM. Besides, in assay [9], the “NC50” value is 18.2 µg/mL. In addition, the dissociation constant Kd in assay [13] was 10.7 nM; in [15], 9.95 nM.

B5: CoV2-20 (antibody, V domains shown)
VH: QVQLVESGGDLVQPGRSLRLSCAASGFIFDDYAMHWVRQVPGKGPEWVSGVNRDSTYVGQADSVKGRFTISRDNAKKALFLQMDSLRVEDTALYYCVRGMTRVATDAFDFWGQGTMVTVSS
VL: AIQMTQSPSSLSASVGDRVTITCRASQSINGYLNWYQQKPGKAPKLLIYSASRLQSGVPSRFSGSGSGADYTLTISNLQVEDFATYYCQQSYSTPPVTFGQGTRLEIK
As to B5, the IC50 stood at 44.6 µg/mL in assay [11] and 14.7 µg/mL in assay [1]. Moreover, the Kd in [2] turned out to be 29.5 nM; in assay [17], 24.4 nM. The koff amounted to 0.000805 s⁻¹ in [2] and 0.000676 s⁻¹ in assay [17]. Besides, the values for the on-rate constant (kon) in assay [2] and in assay [17] were 27300 M⁻¹ s⁻¹ and 27700 M⁻¹ s⁻¹, respectively. Also, the EC50 in assay [18] came to 9.96 nM; in [4], 22 nM; in [19], 5.99 nM.

B6: CoV2-18 (antibody, V domains shown)
VH: QVQLVQSGAEVKKPGSSVKVSCKASGGTFSNYGISWVRQAPGQGLEWMGGIIPIFGTANYAQKFQGRVTITADKSTRTAYMELSSLRFEDTAVYYCARDRDDALTGLGLGGGFDIWGQGTMVTVSS
VL: QAVVTQPPSASGTPGQRVTISCSGSTSNIGTNTANWYQHLPGTAPKLLIYGNDRRPSGVPDRFSGSKSVTSASLAISGLQSEDEADYYCAAWDERLNGYVFGTGTKLTVL
In the case of B6, the binding result in [5] is given as “no binding”; in assay [7] it was “no binding (tested: one concentration, not printed)”. Besides, the Kd in [6] and in [10] was 11.4 nM each time. Further, in assay [1], the IC50 was found to be 6.03 µg/mL. Besides, the EC50 in [4] and in [8] was 2.41 nM in each case. In addition, the koff in assay [10] amounted to 0.000467 s⁻¹. In assay [10], this molecule came in with an association rate constant (kon) of 41200 M⁻¹ s⁻¹. In addition, the “NC50” value in assay [9] amounted to 1.93 µg/mL.

Source of the values: patent publication US20230399384A1 (University of Texas, published 2023).
